The values that follow come from publication PMC8358895 (Cell reports, 2021).

The assay deals with MBP-PLK1 (UniProt P53350 1-603). Description: pull-down.
Chain of MBP-PLK1 (P53350 whole entry): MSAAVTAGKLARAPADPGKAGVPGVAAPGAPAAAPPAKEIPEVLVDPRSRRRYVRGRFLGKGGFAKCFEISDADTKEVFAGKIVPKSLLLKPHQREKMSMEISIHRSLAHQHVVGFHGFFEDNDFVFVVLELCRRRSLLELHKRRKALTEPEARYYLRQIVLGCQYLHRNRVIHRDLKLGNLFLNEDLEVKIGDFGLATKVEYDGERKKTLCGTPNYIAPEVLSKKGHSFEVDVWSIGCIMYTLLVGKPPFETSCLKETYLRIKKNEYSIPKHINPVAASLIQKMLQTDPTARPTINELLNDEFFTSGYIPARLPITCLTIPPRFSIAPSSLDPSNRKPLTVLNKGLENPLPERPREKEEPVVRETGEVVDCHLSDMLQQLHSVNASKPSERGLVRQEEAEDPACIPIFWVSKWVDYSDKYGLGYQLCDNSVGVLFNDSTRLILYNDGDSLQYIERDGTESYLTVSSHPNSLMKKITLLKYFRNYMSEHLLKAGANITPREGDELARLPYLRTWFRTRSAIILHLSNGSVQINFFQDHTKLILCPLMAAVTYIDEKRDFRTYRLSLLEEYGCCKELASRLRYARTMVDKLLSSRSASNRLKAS

B1: GST-Apolo1-N (domain or fragment)
chain: MFLPHMNHLTLEQTFFSQVLPKTVKLFDDMMYELTSQARGLSSQNLEIQTTLRNILQTMVQLLGALTGCVQHICATQESIILENIQSLPSSVLHIIKSTFVHCKNSESVYSGCLHLVSDLLQALFKEAYSLQKQLMELLDMVCMDPLVDDNDDILNMVIVIHSLLDICSVISSMDH
For the molecule B1, the binding result is “binds”.
